Results on one molecule are retold here after patent US20040053368A1 (published 2004).

The target of the experiment is T1, bovine serum albumin (BSA, Sigma) (bovine, UniProt P02769 25-607).
T1 construct: Control protein coated on the ELISA plate
As to the kind of experiment: ELISA, serum albumin coated at 1 mg/ml, detected with anti-human FNCBD monoclonal antibody. The method, then:
By the enzyme-linked immunosorbent assay (ELISA), binding ability of the FNCBD-bFGF and the FNCBD-EGF to bovine native collagen (I-AC, Koken), bovine atelocollagen (I-PC, Koken), and bovine serum albumin (BSA, Sigma) was evaluated.
First, 1 mg/ml solutions of native collagen, atelocollagen, and serum albumin were respectively dispensed in the wells of a flat-bottom 96-well ELISA plate at 200 μl/well, and the plate was allowed to stand overnight at 4° C.
The wells were washed three times with PBS containing 0.05% Tween 20, and 100 μl of anti-human FNCBD monoclonal antibody (Takara Shuzo) diluted 1:1000 was dispensed in the wells and allowed to stand at room temperature for 1 hour. The wells were washed three times with 0.05% Tween 20/PBS, and 100 μl of peroxidase-labelled anti-mouse immunoglobulin polyclonal antibody (Dako Japan) diluted 1:1000 was dispensed in the wells and allowed to stand at room temperature for 1 hour. After washing the wells 6 times with 0.05% Tween 20/PBS, 0.1M citrate buffer, pH 4.7 containing 1 mg/ml o-phenylenediamine and 0.03% hydrogen peroxide was dispensed in the wells and allowed to stand for 10 minutes. The reaction was then terminated by addition of 50 μl of 4N sulfuric acid and absorption at 492-690 nm was measured.

T1 sequence (P02769 25-607 limits assumed): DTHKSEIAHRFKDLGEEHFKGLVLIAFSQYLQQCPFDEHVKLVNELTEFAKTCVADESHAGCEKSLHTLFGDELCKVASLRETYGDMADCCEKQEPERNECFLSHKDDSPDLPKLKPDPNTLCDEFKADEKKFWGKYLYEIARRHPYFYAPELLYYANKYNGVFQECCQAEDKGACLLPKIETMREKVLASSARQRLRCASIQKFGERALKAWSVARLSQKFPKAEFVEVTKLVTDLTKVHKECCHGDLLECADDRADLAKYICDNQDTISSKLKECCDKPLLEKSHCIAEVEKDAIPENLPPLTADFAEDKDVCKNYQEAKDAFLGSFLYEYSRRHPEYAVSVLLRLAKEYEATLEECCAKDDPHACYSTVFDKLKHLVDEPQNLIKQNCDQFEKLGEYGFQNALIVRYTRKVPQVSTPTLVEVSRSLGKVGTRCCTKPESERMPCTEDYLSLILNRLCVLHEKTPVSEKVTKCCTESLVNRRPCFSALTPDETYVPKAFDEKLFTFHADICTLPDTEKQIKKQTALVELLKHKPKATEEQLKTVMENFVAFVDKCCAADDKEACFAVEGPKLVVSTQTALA

B1: human FNCBD/human EGF hybrid polypeptide (FNCBD-EGF) (other)
chain: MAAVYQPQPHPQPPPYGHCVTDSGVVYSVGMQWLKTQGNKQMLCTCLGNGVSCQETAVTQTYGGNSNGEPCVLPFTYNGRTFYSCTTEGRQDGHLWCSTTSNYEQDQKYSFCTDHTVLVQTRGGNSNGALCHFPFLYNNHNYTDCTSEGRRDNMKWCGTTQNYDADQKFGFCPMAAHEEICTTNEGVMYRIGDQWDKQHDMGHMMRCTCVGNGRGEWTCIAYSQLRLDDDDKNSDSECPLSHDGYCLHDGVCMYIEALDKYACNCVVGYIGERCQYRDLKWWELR
notes: also called FN484-EGF; FNCBD/EGF hybrid polypeptide
Regarding B1, the binding result is “no binding”.
